The values that follow come from US20170291930A1 (UNIVERSITY OF MARYLAND BALTIMORE, published 2017).

No end group written: not given here.

The experiment addresses purified recombinant Sap9 (C. albicans secreted aspartic protease 9) (Candida albicans). As to the kind of experiment: cell-based or functional assay.
On to DSHAKRHHGYKRKFHELHHSHRGY [Hst-5 synthetic peptide K17L], for which the “intact peptide remaining after 2 h at 37 C with 3.13 ug/mL Sap9 (gel densitometry)” value (“intact peptide remaining … (gel densitometry)” for short) came out at 77% and the “intact peptide remaining after 2 h with 6.25 ug/mL Sap9” value is above 60%. Take DSHAKRHHGYRRKFHEKHHSHRGY [Hst-5 synthetic peptide K11R]: the “intact peptide remaining after 2 h with 6.25 ug/mL Sap9” value was determined as 20%. For the molecule DSHAKRHHGYKRKFHEKHHSHRGY (also: hydrochloride salt) [parent Hst-5 peptide (Histatin-5)], the “intact peptide remaining … (gel densitometry)” value was 47%. For the molecule DSHARRHHGYKRKFHEKHHSHRGY [Hst-5 synthetic peptide K5R], the “intact peptide remaining after 2 h with 6.25 ug/mL Sap9” value was found to be 4.5%. For the molecule DSHAKRHHGYKRKFHERHHSHRGY [Hst-5 synthetic peptide K17R], the “intact peptide remaining … (gel densitometry)” value came out at 82% and the “intact peptide remaining after 2 h with 6.25 ug/mL Sap9” value is above 60%.
